Data reported in patent US20240360228A1 (BIOLEGEND, published 2024).

Columns and labels:
[1] = biological target: T1, human CCR8 (human, UniProt P51685 1-355); assay: flow blocking, PBMC CCR8+CD4+; competitor PE-AB1
T1 construct: Native CCR8 on human PBMC (CCR8+ CD3+ or CCR8+ CD4+ lymphocytes); also called chemokine (C-C motif) receptor 8
Method: (§1) For blocking studies, 100 μL of the cell suspension were incubated with 10 μg purified isotype control, AB1, AB2, AB3, AB4, AB5, AB8, AB9, AB10, AB11, AB12, AB13, AB14, AB15, and Commercial ABI antibodies, or isotype control, as blocking agents.
(§2) After incubation with the blocking agent, the cells were incubated with 0.25 μg of the indicated PE-conjugated antibody plus anti-human CD4 APC or anti-human CD3 for another 15 minutes in the dark and then washed 2 times with Cell Staining Buffer, and acquired in a FACSCanto II flow cytometer (BD Biosciences); the data was analyzed using FCS Express (De Novo Software); MFI correspond to the CCR8+ CD4+ lymphocytes or CCR8+ CD3+ lymphocytes.
(§3) Percentage original MFI was calculated by dividing the MFI of samples blocked with AB1, AB2, AB3, AB4, AB5, AB6, AB7, AB8, AB9, AB10, AB11, AB12, AB13, AB14, AB15, and Commercial ABI antibodies, by the MFI of samples blocked with the corresponding isotype control. This value was subtracted from 100 to get a blocking percentage. The formula is shown below: […]

[2] = biological target: T1, human CCR8; assay: flow blocking, PBMC CCR8+CD4+; competitor PE-AB2
Method: as §1, §2, §3

[3] = biological target: T1, human CCR8; assay: flow blocking, PBMC CCR8+CD4+; competitor PE-AB3
Method: as §1, §2, §3

[4] = biological target: T1, human CCR8; assay: flow blocking, PBMC CCR8+CD4+; competitor PE-AB4
Method: as §1, §2, §3

[5] = biological target: T1, human CCR8; assay: flow blocking, PBMC CCR8+CD4+; competitor PE-AB5
Method: as §1, §2, §3

[6] = biological target: T1, human CCR8; assay: flow blocking, PBMC CCR8+CD4+; competitor PE-AB6
Method: as §1, §2

[7] = biological target: T1, human CCR8; assay: flow blocking, PBMC CCR8+CD4+; competitor PE-433H
Method: as §1, §2

[8] = biological target: T1, human CCR8; assay: flow blocking, PBMC CCR8+CD4+; competitor PE-AB10
Method: as §1, §2, §3

[9] = biological target: T1, human CCR8; assay: flow blocking, PBMC CCR8+CD4+; competitor PE-AB11
Method: as §1, §2, §3

[10] = biological target: T1, human CCR8; assay: flow blocking, PBMC CCR8+CD4+; competitor PE-AB12
Method: as §1, §2, §3

[11] = biological target: T1, human CCR8; assay: flow blocking, PBMC CCR8+CD4+; competitor PE-AB13
Method: as §1, §2

[12] = biological target: T1, human CCR8; assay: flow blocking, PBMC CCR8+CD4+; competitor PE-AB14
Method: as §1, §2

[13] = biological target: T1, human CCR8; assay: flow blocking, PBMC CCR8+CD4+; competitor PE-AB15
Method: as §1, §2, §3

T1 sequence (P51685 whole entry): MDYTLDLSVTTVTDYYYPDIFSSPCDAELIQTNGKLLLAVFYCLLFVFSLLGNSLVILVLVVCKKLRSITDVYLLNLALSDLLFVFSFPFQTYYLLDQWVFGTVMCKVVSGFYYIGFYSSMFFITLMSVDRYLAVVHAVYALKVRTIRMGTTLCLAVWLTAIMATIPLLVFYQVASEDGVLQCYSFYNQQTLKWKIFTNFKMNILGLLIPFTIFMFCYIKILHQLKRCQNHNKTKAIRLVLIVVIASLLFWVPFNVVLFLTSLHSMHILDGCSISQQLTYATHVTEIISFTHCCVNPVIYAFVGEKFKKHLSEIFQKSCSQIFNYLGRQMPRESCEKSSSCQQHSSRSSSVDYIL

| Binder | % Blocking [1] [%] | % Positive cells [1] [%] | % Blocking [2] [%] | % Positive cells [2] [%] | % Blocking [3] [%] | % Positive cells [3] [%] | % Blocking [4] [%] | % Positive cells [4] [%] | % Blocking [5] [%] | % Positive cells [5] [%] | % Blocking [6] [%] | % Positive cells [6] [%] | % Blocking [7] [%] | % Positive cells [7] [%] | % Blocking [8] [%] | % Positive cells [8] [%] | % Blocking [9] [%] | % Positive cells [9] [%] | % Blocking [10] [%] | % Positive cells [10] [%] | further results |
| --- | --- | --- | --- | --- | --- | --- | --- | --- | --- | --- | --- | --- | --- | --- | --- | --- | --- | --- | --- | --- | --- |
| AB1 (antibody, V domains shown, Hybridoma monoclonal (mouse or rat); Same VH/VL entries as AB2; also called antibody 1; clone 1) VH: QVQLKESGPGLVKPSETLSLTCTVSGFSLTSYHISWVRQPPGKGLEWMGVIWGDGSKTYNSALKSRLSISRDTSKSQVFLKMRSLKTEDTATYYCARGGDSGFAYWGQGTLVTVSS VL: DIQMTQSPASLSASLEEIVTITCQASQDIGNWLSWYQQKPGKSPQLLIYGTTNLADGVPSRFSGSRSGTQYSLKISRLQVEDIGIYYCLQAYSVPLTFGSGTKLEIK | 98.7 | 0.02 | 98.2 | 0.03 | 97.1 | 0.05 | 96.1 | 0.07 | 89.6 | 0.21 | 86.6 | 0.27 | 14.8 | 1.5 | 3.38 | 1.43 | -5.61 | 2.07 | -2.78 | 1.85 | % Blocking [11]: 10.1%; % Positive cells [11]: 1.78%; % Blocking [12]: 1.54%; % Positive cells [12]: 1.28%; % Blocking [13]: -30.2%; % Positive cells [13]: 1.68% |
| AB4 (antibody, V domains shown, Hybridoma monoclonal; also called antibody 4; clone 4) VH: QVQLKESGPGLVKPSETLSLTCTVSGFSLTGYHVSWVRQPPGKGLEWMGVIWGDGRTTYNSALKSRLSISRDTSKSQVFLKMSSLKTEDTATYYCARGGDSGFAYWGQGTLVTVSS VL: DIQMTQSPASLSASLEEIVTITCQASQDIGNWLSWYQQKPGKSPQLLIYGATSLADGVPSRFSGSRSGTQFSLKISRLQVEDIGIYYCLQAYIVPLTFGSGTKLESK | 100 | 0 | 98.8 | 0.02 | 98.2 | 0.03 | 94.9 | 0.09 | 87.1 | 0.26 | 87.1 | 0.26 | 1.14 | 1.74 | 0.68 | 1.47 | 4.59 | 1.87 | 1.11 | 1.78 | % Blocking [11]: 21.7%; % Positive cells [11]: 1.55%; % Blocking [12]: -15.4%; % Positive cells [12]: 1.5%; % Blocking [13]: -33.3%; % Positive cells [13]: 1.72% |
| AB3 (antibody, V domains shown, Hybridoma monoclonal; also called antibody 3; clone 3) VH: QVQLKESGPGLVKPSETLSLTCTVSGFSLTSYHISWVRQPPGKGLEWMGVIWGDGKTTYNSALKSRLSISRDTSKSQVFLKMNSLKTEDTATYYCARGGDSGFAYWGQGTLVTVSS VL: DIQMTQSPASLSASLEEIVTITCQASQDIGNWLSWYQQKPGKSPQLLIYGTTNLADGVPSRFSGSRSGTQYSLKISRLQVEDIGIYYCLQAYSVPLTFGSGTKLEIK | 97.4 | 0.04 | 98.8 | 0.02 | 100 | 0 | 93.3 | 0.12 | 85.2 | 0.3 | 84.7 | 0.31 | 7.39 | 1.63 | -9.46 | 1.62 | 4.59 | 1.87 | 1.67 | 1.77 | % Blocking [11]: 21.2%; % Positive cells [11]: 1.56%; % Blocking [12]: -12.3%; % Positive cells [12]: 1.46%; % Blocking [13]: -7.75%; % Positive cells [13]: 1.39% |
| AB14 (antibody, V domains shown, Hybridoma monoclonal; Same VH/VL entries as AB15; also called antibody 14; clone 14) VH: EVQLVESGGGLVQPKGSLKLSCAASGFTFNTYAMNWVRQAPGKGLEWVARIRSKSNNYATYYVDSVKDRFTISRDDSQSMLYLQINNLKTEDTAMYYCVRGRELGPYSAMDYWGQGTSVTVSS VL: DIVMTQAAPSVPVTPGESVSISCRSSKSLLHSNGNTYLYWFLQRPGQSPQLLIYRMSNLASGVPDRFSGSGSGTAFTLRISRVEAEDVGLYYCMQHLEYPFTFGGGTKLEIK | -25.2 | 1.94 | -10.4 | 1.81 | -27.5 | 2.18 | -10.1 | 1.96 | 6.93 | 1.88 | -3.47 | 2.09 | 22.7 | 1.36 | 96 | 0.06 | 98.5 | 0.03 | 99.4 | 0.01 | % Blocking [11]: 96%; % Positive cells [11]: 0.08%; % Blocking [12]: 98.5%; % Positive cells [12]: 0.02%; % Blocking [13]: 97.7%; % Positive cells [13]: 0.03% |
| AB12 (antibody, V domains shown, Hybridoma monoclonal; also called antibody 12; clone 12) VH: EVQLVESGGGLVQPKGSLKLSCAASGFAFNTYAMNWVRQAPGKGLEWIARLRSKSNFYATYYADSVKDRFTISRDDSQSMLYLQMNNLKTEDTAVYYCVRGRELGPSYAMDYWGQGTSVTVSS VL: DIVMTQAAPSVPVTPGESVSISCRSSKSLLHSNGNTYLYWFLQRPGQSPQLLIYRMSNLASGVPDRFSGSGSGTAFTLRISRVEAEDVGVYYCMQHLEYPYTFGGGTKLEIK | -29.7 | 2.01 | -32.9 | 2.18 | -34.5 | 2.3 | -33.1 | 2.37 | -2.48 | 2.07 | -15.3 | 2.33 | 60.2 | 0.7 | 87.8 | 0.18 | 99 | 0.02 | 99.4 | 0.01 | % Blocking [11]: 98.5%; % Positive cells [11]: 0.03%; % Blocking [12]: 100%; % Positive cells [12]: 0%; % Blocking [13]: 94.6%; % Positive cells [13]: 0.07% |
